Reference: publication doi:10.1101/2023.05.01.538945, “Structural basis of Gabija anti-phage defense and viral immune evasion” (bioRxiv, 2023)

B1: Bacillus cereus VD045 GajA (Gabija protein A), co-expressed with GajB, tag removed (enzyme)
chain: KFSNITIKNFRNFEKVNINLDNKNVIFGMNDIGKTNFLYALRFLLDKEIRKFGFNKSDYHKHDTSKKIEIILTLDLSNYEKDEDTKKLISVVKGARTSANADVFYIALESKYDDKELYGNIILKWGSELDNLIDIPGRGNINALDNVFKVIYINPLVDLDKLFAQNKKYIFEESQGNESDEGILNNIKSLTDQVNQQIGEMTIIKGFQQEITSEYRSLKKEEVSIELKSEMAIKGFFSDIIPYIKKDGDSNYYPTSGDGRRKMLSYSIYNYLAKKKYEDKIVIYLIEEPEISLHRSMQIALSKQLFEQSTYKYFFLSTHSPELLYEMDNTRLIRVHSTEKVVCSSHMYNVEEAYGSVKKKLNKALSSALFAERVLLIEGPSEKILFEKVLDEVEPEYELNGGFLLEVGGTYFNHYVCTLNDLGITHIIKTDNDLKSKKGKKGVYELLGLNRCLNLLGRENLDEITIDIPEDIKGKKKKERLNERKKEIFKQYKNEVGEFLGERIYLSEIDLENDLYSAIGESMKRIFENEDPVHYLQKSKLFNMVELVNNLSTKDCFDVFEHEKFACLKELVGSDRG
notes: GajA (Gabija protein A), Class 2 OLD nuclease, Bacillus cereus VD045, IMG ID 2519684552; codon-optimized synthetic gene; GajA chain of the GajAB crystal structure; The 5xGS linker probably stays on GajA after SENP2 cleavage (surmise); also called BcGajA; source: E. coli BL21(DE3) or BL21(DE3)-RIL, co-expressed with GajB, purified (Ni-NTA, SUMO2 cleavage by hSENP2, SEC); not shown: …

Experiments:
[1] = molecular target: the molecule itself; assay: crystal structure; GajAB co-expressed in E. coli and purified as a complex; hanging drop, 18°C, 100 mM HEPES-NaOH pH 7.5, 2.4% PEG-400, 2.2 M ammonium sulfate; 3.0 Å
[2] = molecular target: the molecule itself; assay: SEC; 16/600 S200 (Superdex 200); purified recombinant BcGajA alone, BcGajB alone and the co-expressed BcGajAB complex
[3] = molecular target: B1; assay: crystal structure; GajAB co-expressed in E. coli and purified as a complex; hanging drop, 18°C, 100 mM HEPES-NaOH pH 7.5, 2.4% PEG-400, 2.2 M ammonium sulfate; 3.0 Å; details: both partners purified

B1 was tested, and the “stoichiometry N” value [1] was 4.

B2: Bacillus cereus VD045 GajA alone, C-terminal 6xHis (enzyme)
chain: KFSNITIKNFRNFEKVNINLDNKNVIFGMNDIGKTNFLYALRFLLDKEIRKFGFNKSDYHKHDTSKKIEIILTLDLSNYEKDEDTKKLISVVKGARTSANADVFYIALESKYDDKELYGNIILKWGSELDNLIDIPGRGNINALDNVFKVIYINPLVDLDKLFAQNKKYIFEESQGNESDEGILNNIKSLTDQVNQQIGEMTIIKGFQQEITSEYRSLKKEEVSIELKSEMAIKGFFSDIIPYIKKDGDSNYYPTSGDGRRKMLSYSIYNYLAKKKYEDKIVIYLIEEPEISLHRSMQIALSKQLFEQSTYKYFFLSTHSPELLYEMDNTRLIRVHSTEKVVCSSHMYNVEEAYGSVKKKLNKALSSALFAERVLLIEGPSEKILFEKVLDEVEPEYELNGGFLLEVGGTYFNHYVCTLNDLGITHIIKTDNDLKSKKGKKGVYELLGLNRCLNLLGRENLDEITIDIPEDIKGKKKKERLNERKKEIFKQYKNEVGEFLGERIYLSEIDLENDLYSAIGESMKRIFENEDPVHYLQKSKLFNMVELVNNLSTKDCFDVFEHEKFACLKELVGSDRG
notes: GajA, Bacillus cereus VD045, IMG ID 2519684552; also called BcGajA; source: E. coli BL21(DE3) or BL21(DE3)-RIL, purified (Ni-NTA, SEC); for the Ni-NTA co-purification co-expressed with Shewanella phage 1/4 Gad1; not shown: 6xHis, C-terminal, kept
In the case of B2, the “stoichiometry N” value [2] is reported as 4.

B3: Bacillus cereus VD045 GajB (Gabija protein B), untagged, co-expressed with GajA (enzyme)
chain: SREQIIKDGGNILVTAGAGSGKTTILVSKIEADLKENKTHYSIAAVTFTNKAAKEIEGRLGYSSRGNFIGTNDGFVESEIIRPFIKDAFGNDYPDNFTAEYFDNQFASYDKGLQVLKYQNILGTYSNPKKNFKFQLALDILKKSLVARQYIFSKYFKIFIDEYQDSDKDMHNLFMYLKDQLKIKLFIVGDPKQSIYIWRGAEPENFNGLIENSTDFNKYHLTSNFRCCQDIQNYSNLFNEETRSLIKEKNEVQNVISIADDMPISDILLKLTEEKQVLNIEAELVILVRRRNQAIEIMKELNEEGFNFIFIPQTPLDRATPNATLLKEVIKYVKNDRYSIYDLAAEIVGNLSSREIKEIQKIINELLVPNINQVLINQVLINLFAKLEITLDTREITAFTEVMMTNEFDIAFDTNEYLHKIFTVHSAKGLEFNQVIITASDYNVHYNRDTNEHYVATTRAKDKLIVIMDNKKYSDYIETLMKELKIKNIIKSI
notes: GajB (Gabija protein B), Superfamily 1A helicase, Bacillus cereus VD045, IMG ID 2519684553; codon-optimized synthetic gene; GajB chain of the GajAB crystal structure and of the GajAB-Gad1 cryo-EM structure; also called BcGajB
B3 was tested, and the “stoichiometry N” value [3] was 1 GajB per GajA (4:4).
